# Experimental data published in article PMC9352346.
# B1: Arl15-AL-Myc [human] / GST-Smad4 [not stated] (parent)
# chain 1: MSDLRITEAFLYMDYLCFRALCCKGPPPARPEYDLVCIGLTGSGKTSLLSKLCSESPDNVVSTTGFSIKAVPFQNAILNVKELGGLDNIRKYWSRYYQGSQGVIFVLDSASSEDDLEAARNELHSALQHPQLCTLPFLILANHQDKPAARSVQEIKKYFELEPLARGKRWILQPCSLDDMDALKDSFSQLINLLEEKDHEAVRM
# chain 2: MDNMSITNTPTSNDACLSIVHSLMCHRQGGESETFAKRAIESLVKKLKEKKDELDSLITAITTNGAHPSKCVTIQRTLDGRLQVAGRKGFPHVIYARLWRWPDLHKNELKHVKYCQYAFDLKCDSVCVNPYHYERVVSPGIDLSGLTLQSNAPSSMMVKDEYVHDFEGQPSLSTEGHSIQTIQHPPSNRASTETYSTPALLAPSESNATSTANFPNIPVASTSQPASILGGSHSEGLLQIASGPQPGQQQNGFTGQPATYHHNSTTTWTGSRTAPYTPNLPHHQNGHLQHHPPMPPHPGHYWPVHNELAFQPPISNHPAPEYWCSIAYFEMDVQVGETFKVPSSCPIVTVDGYVDPSGGDRFCLGQLSNVHRTEAIERARLHIGKGVQLECKGEGDVWVRCLSDHAVFVQSYYLDREAGRAPGDAVHKIYPSAYIKVFDLRQCHRQMQQQAATAQAAAAAQAAAVAGNIPGPGSVGGIAPAISLSAAAGIGVDDLRRLCILRMSFVKGWGPDYPRQSIKETPCWIEIHLHRALQLLDEVLHTMPIADPQPLD
# Variants of: B1
# Assay: GST pull-down, immunoblot band quantification
# Conditions: with GST-Smad4; HeLa cell lysates; bead-immobilized GST-Smad4; parent: 100
row,percent of parent,Variant
1,47,chain 1 Y96F
2,22,chain 1 R90L
3,38,chain 1 R95C
4,95,chain 1 E82K
